Patent publication US20160347859A1 (KATHOLIEKE UNIVERSITEIT LEUVEN, published 2016)

Assays:
mouse PAI-1 = biological target: T1, mouse PAI-1 (mouse, UniProt P22777 23-402); experiment: sandwich ELISA: plate coated with recombinant mouse PAI-1, diabody, mouse TAFI, HRP-conjugated MA-TCK32G12
T1 construct: also called recombinant mouse PAI-1
T1 sequence (looked up): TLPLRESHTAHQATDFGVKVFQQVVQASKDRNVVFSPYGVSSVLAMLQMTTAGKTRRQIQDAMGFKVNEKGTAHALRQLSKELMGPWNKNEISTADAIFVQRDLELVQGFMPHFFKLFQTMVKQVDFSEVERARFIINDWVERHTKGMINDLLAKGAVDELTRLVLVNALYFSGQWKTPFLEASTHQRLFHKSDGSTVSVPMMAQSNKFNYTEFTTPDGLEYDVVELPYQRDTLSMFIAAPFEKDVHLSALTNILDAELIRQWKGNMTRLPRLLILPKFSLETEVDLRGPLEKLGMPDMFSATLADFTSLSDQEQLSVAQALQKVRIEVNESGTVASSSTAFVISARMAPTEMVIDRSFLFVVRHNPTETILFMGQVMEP
Procedure: (§1) Db-TCK26D6x33H1F7 (0.8 mg/kg) was administered IV via tail vein injection in mice (n=6). Prior to the experiment, blood was withdrawn on 0.38% trisodium citrate (=pre-sample). Post injection, blood was withdrawn on 0.38% trisodium citrate at several time points: 5 min, 45 min, 3 hours, 6 hours and 24 hours. Diabody concentrations in corresponding plasma samples were determined by an ELISA based on the simultaneous binding of the diabody towards PAI-1 and TAFI. Wells of polystyrene microtiter plates were incubated with 200 μl recombinant mouse PAI-1 in PBS (pH 7.4; 4 μg/ml) for 72 hours at 4° C., emptied and treated for two hours with PBS supplemented with 1% (m/v) bovine serum albumin. After washing, serial two-fold dilutions (180 μl) of plasma samples were added to the wells and incubated overnight at 4° C. Then, the wells were washed and incubated with 170 μl mouse TAFI (0.1 μg/ml) for 2 hours at room temperature. Subsequently, plates were washed and 160 μl HRP-conjugated MA-TCK32G12 (directed against TAFI) was added to the wells followed by incubation for 2 hours at room temperature. All washing steps were performed with PBS containing Tween 80 (0.002%) and dilutions were made in PBS containing Tween 80 (0.002%) and bovine serum albumin (0.1% m/v). […] The absorbance was measured at 492 nm. […]

mouse TAFI = biological target: T2, mouse TAFI (mouse, UniProt Q9JHH6 22-422); experiment: as above
T2 construct: also called Carboxypeptidase B2 (CPB2)
T2 sequence (looked up): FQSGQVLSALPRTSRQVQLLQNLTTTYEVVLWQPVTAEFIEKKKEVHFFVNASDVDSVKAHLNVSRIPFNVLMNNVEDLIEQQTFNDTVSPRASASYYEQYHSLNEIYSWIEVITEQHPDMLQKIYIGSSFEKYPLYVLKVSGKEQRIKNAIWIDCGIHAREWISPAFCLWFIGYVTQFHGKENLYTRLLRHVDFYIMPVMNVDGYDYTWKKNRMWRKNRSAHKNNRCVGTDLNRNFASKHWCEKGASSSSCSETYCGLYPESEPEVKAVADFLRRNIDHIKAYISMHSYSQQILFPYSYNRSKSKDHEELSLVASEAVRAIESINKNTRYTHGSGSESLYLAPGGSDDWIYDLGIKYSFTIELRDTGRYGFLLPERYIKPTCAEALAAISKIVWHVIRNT
Procedure: as §1

B1: Db-TCK26D6x33H1F7 (bispecific antibody)
chain 1: QVQLQQSGPELVKPGASVKISCKASGYTFTDNNMDWAKQSHGKSLEWIGSIYSNNGGTIYNQKFKGKATLNVDTSSSTAYMELRSLTSEDTAVYYCAREMSDGPYWFFDVWGTGTTVTVSGAKTTPKLGGDIQMTQSPSSLSASLGDRVTISCRASQDISNFLDWYQQKPDGTVKLLIYYTSRLHSGVPSRFSGSGSGTDYSLTISKLEQEDIATYFCQQGNTFPPTFGGGTKLEIKRADAAAAGSEQKLISEEDLNSHHHHHH
chain 2: QVQLQQSGAEVVKPGASVKLACTASGFNIKDTYIHWVKQGPEQGLEWIGRIDPANGNTKYDSKFQDKATITADTSSNTAYLHLSSLTSEDTAVYYCVRGDYDYVYFDYWGQGTTVTVSSAKTTPKLGGDIQMTQSPASLSVSVGETVTITCRASENIFRNLVWYQQKQGKSPQLLVYSATNLVDGVPSRFSGSGSGTQYSLKINSLQSEDFGSYYCQHFWGTPRTFGGGTKLEIKRADTAPTGSEQKLISEEDLNSHHHHHH
notes: also called diabody
B1: binds (mouse PAI-1); binds (mouse TAFI).
